Experimental data from patent US20240156980A1 (Molecular Partners, published 2024).

Legend:
[1] = target: T1, CD3-specific binding domain C7v14; assay: SPR (affinity cited in Example 9; CD3-binding domain taken as C7v14); lower affinity Binder #3
T1 construct: Used as analyte in SPR; also called hC22_88B02v14
T1 chain: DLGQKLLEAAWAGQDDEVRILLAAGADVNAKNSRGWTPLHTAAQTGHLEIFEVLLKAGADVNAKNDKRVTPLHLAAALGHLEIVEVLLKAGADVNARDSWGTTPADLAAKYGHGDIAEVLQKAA
Excerpt: (§1) An important feature of a binding moiety of the invention is its affinity towards a drug molecule. Relevant aspects include the off-rate of the binding moiety from the drug molecule and the resulting blocking half-life. Surface plasmon resonance (SPR) assays were used to determine the binding affinity of ankyrin repeat binding domains to the CD3 binding domain of a TCE drug molecule. AN SPR data was generated using a Bio-Rad ProteOn XPR36 instrument with PBS-T (0.005% Tween 20) as running buffer. A new neutravidin sensor chip (NLC) was air-initialized and conditioned according to Bio-Rad manual.

[2] = target: T2, CD3-specific binding domain C7v119; assay: SPR (ProteOn XPR36), biotinylated Binder captured on NLC neutravidin chip as ligand, CD3-specific binding domain as analyte, PBS-T, 25 C; KD by equilibrium fitting
T2 construct: Used as analyte in SPR; also called hC22_88B02v119
T2 chain: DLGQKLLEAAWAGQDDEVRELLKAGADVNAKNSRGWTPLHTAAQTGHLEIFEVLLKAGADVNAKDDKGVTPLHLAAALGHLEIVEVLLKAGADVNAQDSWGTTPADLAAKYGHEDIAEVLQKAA
Excerpt: as §1

[3] = target: T3, CD3-specific binding domain C7v122; assay: as above
T3 construct: Used as analyte in SPR; also called hC22_88B02v122
T3 chain: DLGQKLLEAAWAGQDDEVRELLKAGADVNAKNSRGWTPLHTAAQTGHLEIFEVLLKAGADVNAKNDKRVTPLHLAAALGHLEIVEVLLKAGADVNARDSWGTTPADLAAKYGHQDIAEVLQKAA
Excerpt: as §1

[4] = target: T1, CD3-specific binding domain C7v14; assay: as above
Excerpt: as §1

[5] = target: T4, CD3-specific binding domain C7v118; assay: as above
T4 construct: Used as analyte in SPR; also called hC22_88B02v118
T4 chain: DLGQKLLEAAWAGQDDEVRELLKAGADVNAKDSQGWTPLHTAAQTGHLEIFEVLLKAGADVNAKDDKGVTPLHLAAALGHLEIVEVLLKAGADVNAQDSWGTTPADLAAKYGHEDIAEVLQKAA
Excerpt: as §1

[6] = target: T5, CD3-specific binding domain C7v127; assay: as above
T5 construct: Used as analyte in SPR; also called hC22_88B02v127
T5 chain: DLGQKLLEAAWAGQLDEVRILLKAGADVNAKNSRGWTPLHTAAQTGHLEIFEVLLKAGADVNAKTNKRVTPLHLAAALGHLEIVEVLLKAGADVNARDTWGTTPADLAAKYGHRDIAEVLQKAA
Excerpt: as §1

B1: Binder #3 (designed binder)
chain: MRGSHHHHHHGSDLGKKLLQAARAGQLDEVRELLKAGADVNAKDAKGLTPLHLAAYHGHLEIVEVLLKAGADVNAKDVYGWTPLHIAAASGHLEIVEVLLKAGADVNAKDALGWTPLHLAASHGHLEIVEVLLKAGADVNAQDKSGKTPADLAARAGHQDIAEVLQKAA
modifications: biotinylated for SPR (site not stated)
notes: N-terminal His-tag; also called 06E05v05
[1]
  Kd: > 100 nM
[2]
  Kd: 336 nM
[3]
  Kd: 149 nM
[4]
  Kd: 189 nM
[5]
  Kd: 683 nM
[6]
  Kd: 53.4 nM
